Variants at the floor of the assay were thinned out.
B1: TPR 5TU (parent)
chain: GGAUCUUCUCGAUCUAACAAAAAAGACAAAUCUGCCACAAAGCUUGAGAGCAUCUUCGGAUGCAGAGGCGGCAGCCUUCGGUGGCGCGAUAGCGCCAACGUUCUCAACUAUGACACGCAAAACGCGUGCUCCGUUGAAUGGAGUUUAUCAUG

Variants of: B1
Test: polymerase ribozyme fitness, log enrichment relative to wild type (log ratio); higher = more active; in vitro selection for triplet polymerase activity
Summary of the method: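 Fitness is a logarithmic measure of how a genotype enriched relative to the wild type, with replicate averages weighted by inverse variance. The logarithm uses base 2, and enrichment came from Illumina sequencing of input and output libraries. Those libraries were PCR-built, transcribed mutants of each subunit of a heterodimeric triplet polymerase ribozyme, passed through one triplicate in vitro selection round that included frozen incubation at −7 °C, gel excision of extended constructs and streptavidin-bead capture. Genotypes were kept only if they had ≥10 input reads and ≥1 read per output.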

Going from A89U U127C G136C A137C to G86U G141A U146C, the “polymerase ribozyme fitness (log ratio)” value rises from -4.13 to -1.62.

G88U C116U A137C C149G and C87A C105U A107U cannot be ordered by “polymerase ribozyme fitness (log ratio)” value: at most -4.2 for the first, at most -4.2 for the second.

Compared with A91U A115U C118A C131G A138G, C87U A137G U148C is higher in “polymerase ribozyme fitness (log ratio)” value: at most -4.2 for the first, -3.87 for the second.

Going from C87U C103G to C87U C103U, the “polymerase ribozyme fitness (log ratio)” value rises from -2.13 to -0.658.

Going from G88C C108G to G86U C118U, the “polymerase ribozyme fitness (log ratio)” value rises from at most -4.2 to -1.69.

Compared with C87U A91G C105G, C87U A121U is higher in “polymerase ribozyme fitness (log ratio)” value: -4.02 for the first, -0.38 for the second.

G88C C114U G141U and G88C A115U G117U C131G U135G cannot be ordered by “polymerase ribozyme fitness (log ratio)” value: at most -4.2 for the first, at most -4.2 for the second.

Going from A89C C105U to A89G G92U C125U U146C, the “polymerase ribozyme fitness (log ratio)” value falls from 0.174 to -1.03.

Compared with C87U U148A, C87U A89G is higher in “polymerase ribozyme fitness (log ratio)” value: -3.62 for the first, -3.41 for the second.

C87U A110G G112U and G88C C105G G128C A142C cannot be ordered by “polymerase ribozyme fitness (log ratio)” value: at most -4.2 for the first, at most -4.2 for the second.

Going from A91U C95G C116A G143U A147C to G86U U148A, the “polymerase ribozyme fitness (log ratio)” value rises from at most -4.2 to -3.6.

G88C A147C G152U and A91C C108G A120U cannot be ordered by “polymerase ribozyme fitness (log ratio)” value: at most -4.2 for the first, at most -4.2 for the second.

Going from G88C C93G U102C G124A to G88C C116U, the “polymerase ribozyme fitness (log ratio)” value rises from at most -4.2 to -3.99.

Going from U90G A97G C114U U139G to U90C G94U G124A C125U, the “polymerase ribozyme fitness (log ratio)” value rises from at most -4.2 to -4.

Compared with G86U C125U, C87G C116U is lower in “polymerase ribozyme fitness (log ratio)” value: -2.02 for the first, -3.77 for the second.

G86U G88A A150C and C87U G100U C114U cannot be ordered by “polymerase ribozyme fitness (log ratio)” value: at most -4.2 for the first, at most -4.2 for the second.

Going from C87U G117C U144A to U90G, the “polymerase ribozyme fitness (log ratio)” value falls from -1.27 to at most -4.2.

First: U90C
Second: U90A
The “polymerase ribozyme fitness (log ratio)” value of the first is higher: -2.87 for the first, -4.07 for the second.

Compared with C87A A107C, C87U A120G A121C A147U U148C is higher in “polymerase ribozyme fitness (log ratio)” value: at most -4.2 for the first, -2.38 for the second.

G86U A119G and C87U A98G are within 0.2 log units of each other in “polymerase ribozyme fitness (log ratio)” value: -1.54 for the first, -1.67 for the second.

Going from C87U A98C to A91G C108U, the “polymerase ribozyme fitness (log ratio)” value falls from -1.07 to -3.97.

Going from C87U C123U C149G to G88A U127G C129U, the “polymerase ribozyme fitness (log ratio)” value falls from -2.65 to at most -4.2.

A91G G100U A113U A120G C125A U139G and G88U U90C G133C A137C cannot be ordered by “polymerase ribozyme fitness (log ratio)” value: at most -4.2 for the first, at most -4.2 for the second.

First: U90C C99G A138G
Second: C87U G141U
The “polymerase ribozyme fitness (log ratio)” value of the first is lower: at most -4.2 for the first, 0.462 for the second.

Compared with C87A A150G, U90A C125G A147C U148C is higher in “polymerase ribozyme fitness (log ratio)” value: at most -4.2 for the first, -3.99 for the second.

Going from A91G U104G A115C to C87U U102C, the “polymerase ribozyme fitness (log ratio)” value rises from -4.06 to -1.21.

Going from A89C A150G to G86U C96A, the “polymerase ribozyme fitness (log ratio)” value falls from -0.921 to -2.89.

First: A89U C123U
Second: C87U U90C C99G
The “polymerase ribozyme fitness (log ratio)” value of the first is higher: 0.89 for the first, -3.53 for the second.

G88A A89G and A91G C118U A121U A122U G124A are within 0.2 log units of each other in “polymerase ribozyme fitness (log ratio)” value: -3.67 for the first, -3.56 for the second.

Going from A89U C95G A122G to C87U C118U A147U, the “polymerase ribozyme fitness (log ratio)” value rises from -1.39 to -0.411.

Going from C87A A147G to A91G G92U, the “polymerase ribozyme fitness (log ratio)” value rises from at most -4.2 to -2.31.

First: A91G G126A G141A
Second: C87A U101G G124A A142C
The “polymerase ribozyme fitness (log ratio)” value of the first is higher: -3.67 for the first, -4.02 for the second.

First: C87U A106G U139C
Second: G86U C87A C95A U104A
The “polymerase ribozyme fitness (log ratio)” value of the first is higher: -3.59 for the first, at most -4.2 for the second.

C87A A91G G152U and G88A A110G A122U are within 0.2 log units of each other in “polymerase ribozyme fitness (log ratio)” value: -4.13 for the first, -3.97 for the second.

Going from G86U U104A G117C to C87G U104G, the “polymerase ribozyme fitness (log ratio)” value falls from -2.37 to at most -4.2.

Compared with A89C C93G C96U U148G, A89G C95G C132U is higher in “polymerase ribozyme fitness (log ratio)” value: at most -4.2 for the first, -3.36 for the second.

G88C A97U C103A G128C U134C U146C and A91C U109G G140U cannot be ordered by “polymerase ribozyme fitness (log ratio)” value: at most -4.2 for the first, at most -4.2 for the second.

First: A89G G92U
Second: A91U C103U U145A
The “polymerase ribozyme fitness (log ratio)” value of the first is higher: -2.48 for the first, at most -4.2 for the second.

A91U A113C and A89C A97U U101G A110G U134G G141A cannot be ordered by “polymerase ribozyme fitness (log ratio)” value: at most -4.2 for the first, at most -4.2 for the second.

Compared with C87A C93A C95G A121U U127G G140A, A89U U102G A122C is higher in “polymerase ribozyme fitness (log ratio)” value: at most -4.2 for the first, -3.7 for the second.

G88C A97C A110G and C87A G88A G117A A119G cannot be ordered by “polymerase ribozyme fitness (log ratio)” value: at most -4.2 for the first, at most -4.2 for the second.

For A91G U127A, the “polymerase ribozyme fitness (log ratio)” value was at most -4.2.

Reference: the RNAGym collection of RNA variant scans (doi:10.1073/pnas.2313332121)
